Common to all, as to test: SEC
A general note: Size exclusion chromatography separates by hydrodynamic size, large species first.

Data set [1] concerns the target Atlas GC GPL binding pocket mutant R86A (Ancylostoma ceylanicum (endogenous retrovirus Atlas virus)).
Data set [2] has as its target Atlas GC fusion loop mutant F136A/F137A (Ancylostoma ceylanicum (endogenous retrovirus Atlas virus)).
Data set [3] deals with the molecule itself.

In the case of “Atlas GC GPL binding pocket mutant R86A (domain or fragment)”, in data set [1], the stoichiometry N amounted to 3.

The molecule “Atlas GC fusion loop mutant F136A/F137A (domain or fragment)” had a stoichiometry N in data set [2] of 3.

B1: Atlas virus GC ectodomain fragment (polyprotein residues 2330-2772) (domain or fragment)
chain: CSEVISVTSTEEVCTIQENKETCTFNHATTITLQPLQQQTCLTLNDPEKRPMGMLTVKPDGIKFRCNKKIEFFTRDHQIVSESVHRCHRAGSCHSDECHHVKDTDALPEFSSEANSRPGYTSCSSSCGCITCDGCFFCEPSCLFHRLYAIPTTPTIYSIFYCPSWELEVDAEISLQREDETTTSTIRLLPGRTSTWNNIRFSLIGTIVPQLPILSSAFVTNGRQTSIVKPAYAGQLQSNSVGQLQCPNLEAAKQFECHFSRNLCTCTNALHKVSCTCYDGSVEDHMEALPLPQTSKNFLVFEKDRNIYAKTHVGSALQLHIVAQDLKITTVKHTSHCQVEASDLSGCYSCTSGASLTLSCKSDNGEVLANMKCNEQTHVIRCTESGFINNILLMFDTSEVAADCTAACPGGIVNFTIKGLLAFVNERIISQSYSATDVERNIK
modifications: N-linked glycan at Asn414 (GC numbering)
Regarding B1, the “stoichiometry N” value in data set [3] came out at 3.

As a reminder, the stoichiometry N is a count of units in the complex or per binding partner.

Values taken from article doi:10.1101/2021.11.23.469668 (bioRxiv, 2021).
